Laboratory results published in patent US12624112 (MABWELL SHANGHAI BIOSCIENCE, dated 2026).
Each block holds one binder with its values, some of them ahead of it.

Tests used:
ST2 on KU812 cells = target: T1, ST2 on KU812 cells (UniProt Q01638 19-556, limits assumed); assay: cell-based or functional assay
T1 sequence (looked up): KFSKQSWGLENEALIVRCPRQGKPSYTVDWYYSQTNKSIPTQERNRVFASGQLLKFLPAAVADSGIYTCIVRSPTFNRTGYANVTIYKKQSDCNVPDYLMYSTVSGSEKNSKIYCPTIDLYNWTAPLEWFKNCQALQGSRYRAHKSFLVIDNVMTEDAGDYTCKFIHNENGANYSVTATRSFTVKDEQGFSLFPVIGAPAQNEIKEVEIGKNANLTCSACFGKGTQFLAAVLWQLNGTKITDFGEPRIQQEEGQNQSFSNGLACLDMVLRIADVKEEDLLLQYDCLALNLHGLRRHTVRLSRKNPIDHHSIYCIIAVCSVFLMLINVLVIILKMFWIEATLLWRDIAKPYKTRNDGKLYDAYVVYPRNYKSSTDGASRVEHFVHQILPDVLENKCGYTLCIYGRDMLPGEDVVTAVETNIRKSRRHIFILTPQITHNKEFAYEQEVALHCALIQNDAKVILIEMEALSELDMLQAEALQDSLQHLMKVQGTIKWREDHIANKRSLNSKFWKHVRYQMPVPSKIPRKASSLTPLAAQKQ

Human ST2-his [1] = target: T2, Human ST2-his (human, UniProt Q01638 19-328); assay: SPR Biacore X100, antibody on protein A, ST2-his analyte
T2 construct: Expressed in CHO-K1; also called human ST2 fused with a 6-histidine tag at the C-terminus
T2 sequence: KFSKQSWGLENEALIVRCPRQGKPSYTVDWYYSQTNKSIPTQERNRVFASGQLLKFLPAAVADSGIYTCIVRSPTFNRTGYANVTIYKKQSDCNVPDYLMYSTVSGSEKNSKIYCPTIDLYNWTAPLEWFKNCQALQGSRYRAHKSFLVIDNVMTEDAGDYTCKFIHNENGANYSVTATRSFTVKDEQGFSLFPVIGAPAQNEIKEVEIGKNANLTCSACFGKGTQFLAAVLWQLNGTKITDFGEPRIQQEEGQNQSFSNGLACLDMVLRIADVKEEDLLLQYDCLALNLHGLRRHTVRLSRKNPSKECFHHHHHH
Experimental: On the basis of the results of the quantitative screenings of murine antibodies above together, 19 murine antibodies were selected for affinity determination and in vitro pharmacological study. The experiment on the interaction between the anti-human ST2 antibodies and human ST2-his was performed using Biacore X100, and was carried out at 25° C. in HBS-EP (1×) buffer (pH 7.4).
Each anti-human ST2 antibody was diluted to 10 nM and captured on the surface of a protein A chip (for a capture time of 60 s). […] Association was monitored for 4 min and dissociation for 10 min, and the sensor surface was regenerated by injecting a solution of glycine at pH 2.0. Data generated for kinetics and affinity assay were analyzed using BIAevaluation software.

Cyno ST2-fc = target: T3, Cyno ST2-fc (cyno; human, UniProt A0A2K5UDB8 19-331); assay: SPR Biacore X100, antibody on CM5, cyno ST2-fc analyte
T3 construct: also called cyno ST2 fused with a human IgG1 Fc tag at the C-terminus
T3 sequence: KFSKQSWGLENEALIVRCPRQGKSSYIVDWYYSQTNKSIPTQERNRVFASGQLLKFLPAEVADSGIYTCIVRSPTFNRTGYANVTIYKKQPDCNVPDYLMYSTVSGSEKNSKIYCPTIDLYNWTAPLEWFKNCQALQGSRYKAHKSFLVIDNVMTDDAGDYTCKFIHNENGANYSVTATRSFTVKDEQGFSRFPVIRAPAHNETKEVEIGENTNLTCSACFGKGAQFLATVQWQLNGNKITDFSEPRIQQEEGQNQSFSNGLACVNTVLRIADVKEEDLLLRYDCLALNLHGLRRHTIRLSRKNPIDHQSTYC
Experimental: The experiment on the interactions between the anti-human ST2 antibodies and cyno ST2-fc was performed using Biacore X100, and was carried out at 25° C. in HBS-EP (1×) buffer (pH 7.4). Each antibody was immobilized on the surface of CM5 chip using an amino coupling kit. Following the antibody immobilization, a solution of cyno ST2-fc (2-fold gradient dilution from a starting concentration of 8 nM, to obtain 6 concentrations in total; the starting concentration might be increased if the signal of some sample was too low) was injected. Association was monitored for 2 min and dissociation for 10 min, and the sensor surface was regenerated by injecting a solution of glycine at pH 1.5.

Human ST2-fc (human) = Human ST2-fc (human) (UniProt Q01638); assay: competition ELISA, coated ST2-fc, competitor IL33-his
Human ST2-his [2] = target: T4, Human ST2-his (human, UniProt Q01638-2 19-328, limits assumed); assay: SPR Biacore X100, antibody captured on protein A chip, human ST2-his injected, pH 7.4
T4 construct: Expressed in CHO-K1; The printed range starts at Met1; also called human ST2 fused with a 6-histidine tag at the C-terminus
T4 sequence: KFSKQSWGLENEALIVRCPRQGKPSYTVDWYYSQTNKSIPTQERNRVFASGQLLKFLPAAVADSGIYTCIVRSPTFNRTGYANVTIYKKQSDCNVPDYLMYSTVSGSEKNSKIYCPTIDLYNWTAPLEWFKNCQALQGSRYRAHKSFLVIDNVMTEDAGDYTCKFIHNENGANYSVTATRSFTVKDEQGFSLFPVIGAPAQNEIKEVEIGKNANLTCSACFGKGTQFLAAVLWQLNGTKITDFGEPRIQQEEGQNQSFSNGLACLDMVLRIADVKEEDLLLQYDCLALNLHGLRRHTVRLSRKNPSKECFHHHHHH
Experimental: The experiment on the interaction between the anti-human ST2 antibodies and human ST2-his was performed using Biacore X100.
Each anti-human ST2 antibody was diluted to 2 µg/mL and captured on the surface of a protein A chip for a capture time of 60 s. Following the antibody capture, a solution of human ST2-his (2-fold gradient dilution from a starting concentration of 20 nM, to obtain 6 concentrations in total) was injected. Association was monitored for 180 s and dissociation was monitored for 700 s, and the sensor surface was regenerated by injecting a solution of glycine at pH 2.0. Kinetic data were analyzed using a simple 1:1 binding model.

[3] = target: T5, ST2 on the effector cells (KU812, KU812/NF-κB-1#, HUVEC, HMC-1) (human, UniProt Q01638 19-556); assay: cell-based or functional assay
T5 sequence (looked up): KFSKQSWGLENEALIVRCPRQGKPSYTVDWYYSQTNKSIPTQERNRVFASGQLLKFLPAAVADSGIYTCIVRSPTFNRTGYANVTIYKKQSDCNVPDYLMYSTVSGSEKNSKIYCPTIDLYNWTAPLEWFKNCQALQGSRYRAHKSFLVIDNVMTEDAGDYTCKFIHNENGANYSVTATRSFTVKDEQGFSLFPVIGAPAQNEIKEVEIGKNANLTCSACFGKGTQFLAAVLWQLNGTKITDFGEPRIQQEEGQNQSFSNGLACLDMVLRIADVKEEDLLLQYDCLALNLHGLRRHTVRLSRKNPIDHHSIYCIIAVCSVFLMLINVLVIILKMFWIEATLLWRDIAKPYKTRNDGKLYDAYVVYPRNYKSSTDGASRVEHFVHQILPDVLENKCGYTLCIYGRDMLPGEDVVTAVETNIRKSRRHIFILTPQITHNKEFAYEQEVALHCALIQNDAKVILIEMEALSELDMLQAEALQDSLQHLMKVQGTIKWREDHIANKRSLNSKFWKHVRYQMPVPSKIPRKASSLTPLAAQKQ

[4] = target: T5, ST2 on the effector cells (KU812, …); assay: cell-based or functional assay; remark: listed apart in the source

Maximum inhibition rate (%), KU812 IL-5 production (ST2 on KU812 cells): 89% | Kd (Human ST2-his [1]): 698 pM | koff (Human ST2-his [1]): 0.000539 s⁻¹ | kon (Human ST2-his [1]): 827000 M⁻¹ s⁻¹ | Kd (Cyno ST2-fc): 136 pM | koff (Cyno ST2-fc): 0.000221 s⁻¹ | kon (Cyno ST2-fc): 1.63e+06 M⁻¹ s⁻¹
B1: Control antibody CNTO7160 (antibody, human IgG4 S228P, kappa, V domains shown)
VH: EVQLLESGGGLVQPGGSLRLSCAASGFTFSIYDMIWVRQAPGKGLEWVSSIRGEGGGTYYADSVKGRFTISRDNSKNTLYLQMNSLRAEDTAVYYCARDPWSTEGSFFVLDYWGQGTLVTVSS
VL: EIVLTQSPATLSLSPGERATLSCRASQSVDDDLAWYQQKPGQAPRLLIYDASNRATGIPARFSGSGSGTDFTLTISSLEPEDFAVYYCQQYITAPLTFGQGTKVEIKR

IC50 (Human ST2-fc (human)): 0.488 µg/mL | Maximum inhibition rate (Human ST2-fc (human)): 90.5% | Relative activity compared with CNTO7160 (Human ST2-fc (human)): 180%
B2: 5888-379-H0L0 (antibody, human IgG4 S228P, kappa, V domains shown)
VH: QVQLVQSGAEVKKPGASVKVSCKASGYTFINYGMNWVRQAPGQRLEWMGWINTYIGEPTYGDNFKGRVTITRDTSASTAYMELSSLRSEDTAVYYCAREGDGFAYWGQGTLVTVSS
VL: DIQMTQSPSSLSASVGDRVTITCKSSQSLLYSGNQNNYLAWYQQKPGKVPKLLIYGASTRESGVPSRFSGSGSGTDFTLTISSLQPEDVATYYCQNDHSYPYTFGGGTKVEIKR

IC50 (Human ST2-fc (human)): 0.317 µg/mL | Maximum inhibition rate (Human ST2-fc (human)): 89.5% | Relative activity compared with CNTO7160 (Human ST2-fc (human)): 276%
B3: 5888-379-H1L1 (antibody, human IgG4 S228P, kappa, V domains shown)
VH: QVQLVQSGAEVKKPGASVKVSCKASGYTFINYGMNWVRQAPGQRLEWMGWINTYIGEPTYGDNFKGRVTITRDTSASTAYMELSSLRSEDTAVYYCAREGEGFAYWGQGTLVTVSS
VL: DIQMTQSPSSLSASVGDRVTITCKSSQSLLYSGNQNNYLAWYQQKPGKVPKLLIYGASTRESGVPSRFSGSGSGTDFTLTISSLQPEDLATYYCQNDHSYPYTFGGGTKVEIKR

IC50 (Human ST2-fc (human)): 1 µg/mL | Maximum inhibition rate (Human ST2-fc (human)): 88% | Relative activity compared with CNTO7160 (Human ST2-fc (human)): 125% | Kd (Human ST2-his [2]): 261 pM | koff (Human ST2-his [2]): 0.000377 s⁻¹ | kon (Human ST2-his [2]): 1.45e+06 M⁻¹ s⁻¹ | IC50, inhibition of KU812-IL5 production promoted by IL-33 (human IL33-his) [3]: 0.0289 µg/mL | Maximum inhibition rate, KU812-IL5 production by IL-33 [3]: 95% | Relative activity compared with CNTO7160, KU812-IL5 production by IL-33 [3]: 222%
B4: 5886-156-H1L1 (antibody, human IgG4 S228P, kappa, V domains shown)
VH: QVQLQESGPGLVKPSQTLSLTCTVSGYSITSDYAWNWIRQPPGKGLEWIGYIDYSGSTTYNPSLKSRVTISRDTSKNQFSLKLSSVTAADTAVYYCASTVIDSMDYWGQGTLVTVSS
VL: DIVLTQSPASLAVSPGQRATITCRASKSVSTSGHSYMHWYQQKPGQPPKLLIYLASNLESGVPARFSGSGSGTDFTLTINPVEANDAANYYCQHSREFPFTFGQGTKVEIKR
notes: Humanized antibody

IC50 (Human ST2-fc (human)): 0.624 µg/mL | Maximum inhibition rate (Human ST2-fc (human)): 93.8% | Relative activity compared with CNTO7160 (Human ST2-fc (human)): 183% | IC50, inhibition of activation of KU812-NF-κB reporter gene by IL33 [4]: 0.0124 µg/mL | Maximum inhibition rate, KU812-NF-κB reporter gene [4]: 91.4% | Relative activity compared with CNTO7160, KU812-NF-κB reporter gene [4]: 1620%
B5: 5888-153-H1L1 (antibody, human IgG4 S228P, kappa, V domains shown)
VH: QVQLVQSGAEVKKPGASVKVSCKASGYTFTDYELHWVRQAPGQGLEWMGTIDPETGDTVYNQKFKARVTMTADKSTSTAYMELSSLRSEDTAVYYCTRAFYNDYDDGFAYWGQGTLVTVSS
VL: EIVMTQSPATLSLSPGERATLSCSVSSSVSYMHWYQQKPGQAPRRLIYDTSKLASGIPARFSGSGSGTDYTLTISSLEPEDAAVYYCQQWNSSPLTFGGGTKVEIKR

IC50 (Human ST2-fc (human)): 0.49 µg/mL | Maximum inhibition rate (Human ST2-fc (human)): 93.2% | Relative activity compared with CNTO7160 (Human ST2-fc (human)): 257%
B6: 5888-357-H1L1 (antibody, human IgG4 S228P, kappa, V domains shown)
VH: QVQLVQSGAEVKKPGASVKVSCKASGYRFTDSEMHWVRQAPGQGLEWMGTIDPETGGTVYNQKFKGRVTMTADRSTSTVYMELSSLRSEDTAVYYCTRAFYNDFDDGFAYWGQGTMVTVSS
VL: EIVMTQSPATLSLSPGERATLSCSASTSVSYMHWYQQKPGQAPRRLIYDTSKLASGIPARFSGSGSGTDYTLTISSLEPEDAAVYYCQQWSSNPLTFGGGTKVEIKR

IC50 (Human ST2-fc (human)): 0.852 µg/mL | Maximum inhibition rate (Human ST2-fc (human)): 94% | Relative activity compared with CNTO7160 (Human ST2-fc (human)): 134% | IC50, inhibition of activation of KU812-NF-κB reporter gene by IL33 [4]: 0.0441 µg/mL | Maximum inhibition rate, KU812-NF-κB reporter gene [4]: 85% | Relative activity compared with CNTO7160, KU812-NF-κB reporter gene [4]: 454%
B7: 5888-153-H1L2 (antibody, human IgG4 S228P, kappa, V domains shown)
VH: QVQLVQSGAEVKKPGASVKVSCKASGYTFTDYELHWVRQAPGQGLEWMGTIDPETGDTVYNQKFKARVTMTADKSTSTAYMELSSLRSEDTAVYYCTRAFYNDYDDGFAYWGQGTLVTVSS
VL: EIVMTQSPATLSLSPGERATLSCSVSSSVSYMHWYQQKPGQAPRRLIYDTSKLASGIPARFSGSGSGTDYTLTISSLEPEDAAVYYCQQWNTSPLTFGGGTKVEIKR
